Five molecules from patent US20140087995A1 (published 2014) can be followed below.

Numbered stars: 1 amine (or outer) side, 2 acyl side, 3 side chain; on linkers, the order of the positions; unused ones are H or OH. Bridge positions count the residues as written; N and C are the ends. Side chains are listed from the residue outwards. Ends that are not written are not given here. * marks the point of attachment. C20 diacid = O=C(O)CCCCCCCCCCCCCCCCCCC(=O)*; C16 diacid = O=C(O)CCCCCCCCCCCCCCC(=O)*; γGlu = O=C(O)[C@H](CCC(=O)[*:2])N[*:1]; C14 diacid = O=C(O)CCCCCCCCCCCCC(=O)*

The target of assay [1] is T1, human calcitonin receptor (human, UniProt P30988 25-474).
T1 construct: whole, on cells; also called hCTR; hCT
T1 sequence (looked up): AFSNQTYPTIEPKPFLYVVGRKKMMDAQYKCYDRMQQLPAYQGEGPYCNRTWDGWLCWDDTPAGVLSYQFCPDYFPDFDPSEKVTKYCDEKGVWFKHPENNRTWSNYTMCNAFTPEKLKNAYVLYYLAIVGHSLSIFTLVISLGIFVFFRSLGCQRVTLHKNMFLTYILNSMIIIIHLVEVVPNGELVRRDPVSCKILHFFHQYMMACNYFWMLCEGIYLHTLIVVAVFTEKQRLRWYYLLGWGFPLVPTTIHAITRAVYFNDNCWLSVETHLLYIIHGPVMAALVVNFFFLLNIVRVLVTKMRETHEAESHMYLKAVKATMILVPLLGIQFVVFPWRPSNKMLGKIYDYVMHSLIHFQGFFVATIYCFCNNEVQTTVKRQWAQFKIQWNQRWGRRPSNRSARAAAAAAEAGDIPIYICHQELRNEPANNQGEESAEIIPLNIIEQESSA
As to the kind of experiment: ratio of IC50 at human calcitonin receptor to IC50 at human amylin receptor (SPA competition assays). An outline of the steps:
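Scintillation proximity competition binding on cell membranes at 35 ng/μL with SPA beads, in 50 mM Hepes pH 7.4, 1 mM CaCl2, 5 mM MgCl₂, 0.1% OA, 0.02% Tween20. Incubated 120 min at 25° C with shaking. IC₅₀ from one-site competition fit.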

Assay [2] concerns the target T1, human calcitonin receptor. As to the kind of experiment: SPA radioligand competition (125I-calcitonin), membranes of BHK cells with human calcitonin receptor. An outline of the steps:
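BHK hCTR membranes 35 ng/μL + SPA beads 0.05 mg/well; buffer 50 mM Hepes pH 7.4, 1 mM CaCl2, 5 mM MgCl₂, 0.1% OA, 0.02% Tween20. 120 min, 25° C., shaking. Scintillation count; IC50 by one-site binding competition.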

B1: N^ε1-[(4S)-4-carboxy-4-(13-carboxytridecanoylamino)butanoyl]-[Arg17,Pro21,Pro27,His34]-h-amylin (peptide)
peptide: K([γGlu-C14 diacid])CNTATCATQRLANFLRHSSPNFGAIPSSTNVGHNTY-NH2
modifications: disulfide 2-7; N-terminus assumed
SMILES: CC[C@H](C)[C@H](NC(=O)[C@H](C)NC(=O)CNC(=O)[C@H](Cc1ccccc1)NC(=O)[C@H](CC(N)=O)NC(=O)[C@@H]1CCCN1C(=O)[C@H](CO)NC(=O)[C@H](CO)NC(=O)[C@H](Cc1c[nH]cn1)NC(=O)[C@H](CCCNC(=N)N)NC(=O)[C@H](CC(C)C)NC(=O)[C@H](Cc1ccccc1)NC(=O)[C@H](CC(N)=O)NC(=O)[C@H](C)NC(=O)[C@H](CC(C)C)NC(=O)[C@H](CCCNC(=N)N)NC(=O)[C@H](CCC(N)=O)NC(=O)[C@@H](NC(=O)[C@H](C)NC(=O)[C@@H]1CSSC[C@H](NC(=O)[C@@H](N)CCCCNC(=O)CC[C@H](NC(=O)CCCCCCCCCCCCC(=O)O)C(=O)O)C(=O)N[C@@H](CC(N)=O)C(=O)N[C@@H]([C@@H](C)O)C(=O)N[C@@H](C)C(=O)N[C@@H]([C@@H](C)O)C(=O)N1)[C@@H](C)O)C(=O)N1CCC[C@H]1C(=O)N[C@@H](CO)C(=O)N[C@@H](CO)C(=O)N[C@H](C(=O)N[C@@H](CC(N)=O)C(=O)N[C@H](C(=O)NCC(=O)N[C@@H](Cc1c[nH]cn1)C(=O)N[C@@H](CC(N)=O)C(=O)N[C@H](C(=O)N[C@@H](Cc1ccc(O)cc1)C(N)=O)[C@@H](C)O)C(C)C)[C@@H](C)O
For B1, the “Ratio hCT/hAmylin binding” value in assay [1] stood at 23.5. In addition, the IC50 in assay [2] worked out at 24.3 nM.
With {C20 diacid-γGlu}-GRCNTATCATQRLAAFLRHSSPNFGAIPSSTNVGPNTY-NH2 (disulfide 3-8), the “Ratio hCT/hAmylin binding” value in assay [1] amounted to 26.5. For the same molecule, in assay [2], the 50% inhibitory concentration (IC50) is 3 nM.

B2: N^-1-[(4S)-4-carboxy-4-(19-carboxynonadecanoylamino)butanoyl]-Gly[Arg1,His14,Arg17,Pro21,Pro27,Pro34]-h-amylin (peptide)
peptide: {C20 diacid-γGlu}-GRCNTATCATQRLAHFLRHSSPNFGAIPSSTNVGPNTY-NH2
modifications: disulfide 3-8
SMILES: CC[C@H](C)[C@H](NC(=O)[C@H](C)NC(=O)CNC(=O)[C@H](Cc1ccccc1)NC(=O)[C@H](CC(N)=O)NC(=O)[C@@H]1CCCN1C(=O)[C@H](CO)NC(=O)[C@H](CO)NC(=O)[C@H](Cc1c[nH]cn1)NC(=O)[C@H](CCCNC(=N)N)NC(=O)[C@H](CC(C)C)NC(=O)[C@H](Cc1ccccc1)NC(=O)[C@H](Cc1c[nH]cn1)NC(=O)[C@H](C)NC(=O)[C@H](CC(C)C)NC(=O)[C@H](CCCNC(=N)N)NC(=O)[C@H](CCC(N)=O)NC(=O)[C@@H](NC(=O)[C@H](C)NC(=O)[C@@H]1CSSC[C@H](NC(=O)[C@H](CCCNC(=N)N)NC(=O)CNC(=O)CC[C@H](NC(=O)CCCCCCCCCCCCCCCCCCC(=O)O)C(=O)O)C(=O)N[C@@H](CC(N)=O)C(=O)N[C@@H]([C@@H](C)O)C(=O)N[C@@H](C)C(=O)N[C@@H]([C@@H](C)O)C(=O)N1)[C@@H](C)O)C(=O)N1CCC[C@H]1C(=O)N[C@@H](CO)C(=O)N[C@@H](CO)C(=O)N[C@H](C(=O)N[C@@H](CC(N)=O)C(=O)N[C@H](C(=O)NCC(=O)N1CCC[C@H]1C(=O)N[C@@H](CC(N)=O)C(=O)N[C@H](C(=O)N[C@@H](Cc1ccc(O)cc1)C(N)=O)[C@@H](C)O)C(C)C)[C@@H](C)O
As to B2, in assay [1], the “Ratio hCT/hAmylin binding” value was 36.2. Besides, the half-inhibitory concentration (IC50) in assay [2] is 7.87 nM.

B3: N{-1}-[(4S)-4-carboxy-4-(19-carboxynonadecanoylamino)butanoyl]-Gly[Arg1,His14,Arg17,Pro21,Pro27]-h-amylin (peptide)
peptide: {C20 diacid-γGlu}-GRCNTATCATQRLAHFLRHSSPNFGAIPSSTNVGSNTY-NH2
modifications: disulfide 3-8
SMILES: CC[C@H](C)[C@H](NC(=O)[C@H](C)NC(=O)CNC(=O)[C@H](Cc1ccccc1)NC(=O)[C@H](CC(N)=O)NC(=O)[C@@H]1CCCN1C(=O)[C@H](CO)NC(=O)[C@H](CO)NC(=O)[C@H](Cc1c[nH]cn1)NC(=O)[C@H](CCCNC(=N)N)NC(=O)[C@H](CC(C)C)NC(=O)[C@H](Cc1ccccc1)NC(=O)[C@H](Cc1c[nH]cn1)NC(=O)[C@H](C)NC(=O)[C@H](CC(C)C)NC(=O)[C@H](CCCNC(=N)N)NC(=O)[C@H](CCC(N)=O)NC(=O)[C@@H](NC(=O)[C@H](C)NC(=O)[C@@H]1CSSC[C@H](NC(=O)[C@H](CCCNC(=N)N)NC(=O)CNC(=O)CC[C@H](NC(=O)CCCCCCCCCCCCCCCCCCC(=O)O)C(=O)O)C(=O)N[C@@H](CC(N)=O)C(=O)N[C@@H]([C@@H](C)O)C(=O)N[C@@H](C)C(=O)N[C@@H]([C@@H](C)O)C(=O)N1)[C@@H](C)O)C(=O)N1CCC[C@H]1C(=O)N[C@@H](CO)C(=O)N[C@@H](CO)C(=O)N[C@H](C(=O)N[C@@H](CC(N)=O)C(=O)N[C@H](C(=O)NCC(=O)N[C@@H](CO)C(=O)N[C@@H](CC(N)=O)C(=O)N[C@H](C(=O)N[C@@H](Cc1ccc(O)cc1)C(N)=O)[C@@H](C)O)C(C)C)[C@@H](C)O
notes: also called compound 99
As for B3, the “Ratio hCT/hAmylin binding” value in assay [1] amounted to 100. Besides, in assay [2], the half-maximal inhibitory concentration (IC50) stood at 35 nM.

B4: N^ε1-[(4S)-4-carboxy-4-(15-carboxypentadecanoylamino)butanoyl]-[Arg17,Pro21,Pro27,His34]-h-amylin (peptide)
peptide: K([γGlu-C16 diacid])CNTATCATQRLANFLRHSSPNFGAIPSSTNVGHNTY-NH2
modifications: disulfide 2-7; N-terminus assumed
SMILES: CC[C@H](C)[C@H](NC(=O)[C@H](C)NC(=O)CNC(=O)[C@H](Cc1ccccc1)NC(=O)[C@H](CC(N)=O)NC(=O)[C@@H]1CCCN1C(=O)[C@H](CO)NC(=O)[C@H](CO)NC(=O)[C@H](Cc1c[nH]cn1)NC(=O)[C@H](CCCNC(=N)N)NC(=O)[C@H](CC(C)C)NC(=O)[C@H](Cc1ccccc1)NC(=O)[C@H](CC(N)=O)NC(=O)[C@H](C)NC(=O)[C@H](CC(C)C)NC(=O)[C@H](CCCNC(=N)N)NC(=O)[C@H](CCC(N)=O)NC(=O)[C@@H](NC(=O)[C@H](C)NC(=O)[C@@H]1CSSC[C@H](NC(=O)[C@@H](N)CCCCNC(=O)CC[C@H](NC(=O)CCCCCCCCCCCCCCC(=O)O)C(=O)O)C(=O)N[C@@H](CC(N)=O)C(=O)N[C@@H]([C@@H](C)O)C(=O)N[C@@H](C)C(=O)N[C@@H]([C@@H](C)O)C(=O)N1)[C@@H](C)O)C(=O)N1CCC[C@H]1C(=O)N[C@@H](CO)C(=O)N[C@@H](CO)C(=O)N[C@H](C(=O)N[C@@H](CC(N)=O)C(=O)N[C@H](C(=O)NCC(=O)N[C@@H](Cc1c[nH]cn1)C(=O)N[C@@H](CC(N)=O)C(=O)N[C@H](C(=O)N[C@@H](Cc1ccc(O)cc1)C(N)=O)[C@@H](C)O)C(C)C)[C@@H](C)O
With B4, the “Ratio hCT/hAmylin binding” value in assay [1] is 18.5. The IC50 in assay [2] was found to be 10.8 nM.
